Results published in the DeepSol protein solubility set.

Assay: soluble on expression in E. coli; label from the status in PepcDB or PDB records

| Sequence | soluble on expression in E. coli |
| --- | --- |
| MSLADERIEVLKDILLELHHGASAESVQERFNQHFKGVSAIEISMMEHELMNADTGITFEDVMGLCNVHANLFKGAIADVDVPDAEQEGHPVKVFKDENLALRAAIMRIRRIIENYTKPENEDFRQEILKGLKHQFDLLGQFYHHYTRKEKLFFPIMERYGHDSPPKVMWGVDDDIRDLFKDAKATLAKLPDGSIEELSQKFEAFAKEFEEMIFKEEAILLMILLESFTQDDWLQIASESDAYGYAILKPTEKWIPHRESFDNEADADTSDNQLADALNQVQDANSPEGTNTKVINTPEGQFTITFKPKEKEAAADRTTQQPFGNGYLSVEQANLILNHLPLEITFVNKDDIFQYYNDSVPAAEMVFKRTPSQVGRNVELCHPPKVLDKVKKVFELLRNGQRDKVNMWFQSERLGKFVYVTYAAVRDQAGDFQGVLEYVQDIKPFFELDSEFNRDEGHHHHHH | soluble |
| MKTLPVLPGQAASSRPSPVEIWQILLSRLLDQHYGLTLNDTPFADERVIEQHIEAGISLCDAVNFLVEKYALVRTDQPGFSACTRSQLINSIDILRARRATGLMTRDNYRTVNNITLGKYPEAK | soluble |
| MGSDKIHHHHHHMPIKVNMFSSASKVKGQGVGSAYEELIRLLKTHFPKQIDVSINKFTKADISHYHTIDPNFYLSTFSKKRGIKVGYVHFLPETIEGSLNIPQPFRSIFYKYIISFYKRMDHIVVVNPTFIDKLVAYGISRDIITYIPNFVRKNEFYRFTEANRDAVRERLEVNNRFTVLGIGQVQERKGVKDFIKLAENNPDKYFIWAGGFSFGRLTDGYADLKQVVDNPPRNLKFTGIVDRNALVEYYNAADLFLLPSYNELFPMSVLEAFSCGVPVMLRDLELYHSIIKGYYIPTQDYEDMNTQLKLVSEDKERLNKFKQLSDEASEEYSEDHLADIWLDFYSSLTK | not soluble |
| MGSDKIHHHHHHMVTHWLPDLSTAEGPLYIRIADRAEADIKTGRLSSGAKLPPQRDLAFDLKVTIGTITRAYALLRERGLVTGEVGRGTYVQSSLAESETDIHRDPVTLTYGGTRTLSPPPGKLRFDTTAAIDVGQADIIGRLMTDIARDQPDEIASYTRTLLPDWLEAGRRWLSNGDWSPEAANIVPQMGVHAGVNAVIAAISGTGDRIVCEHLTYSQIARSASLMGRQIALVDSDHDGIMPEDFERVCAREHPKAAFIMSSGQNPTLSCLPLSRRLEIIDIARRYNVWLIEDYIYGALVDDGIPLLAQLAPDRTFLLNSLSKSVAAGVRGGWVACPDHMSQRVRVTQKMVCGGLPFLLAELSARLVLSGAADDIRGRVLEELSAREQIVRQLFEGYEFRSHPRLPYFWLKLPEPWLSGTFKQAALDQGVLIDDEDEFKPARSSRVFHHIRAGFSEGRDRSIAEGGLITLRRILDQIPVGSNAVM | not soluble |
| STVKRKPVFVKVEQLKPGTTGHTLTVKVIEANIVVPVTRKTRPASSLSRPSQPSRIVECLIGDETGCILFTARNDQVDLMKPGATVILRNSRIDMFKGTMRLGVDKWGRIEATGAASFTVKEDNNLSLVEYE | soluble |
| MSQEIRQNEKISYRIEGPFFIIHLINPDNLNALEGEDYIYLGELLELADRNRDVYFTIIQSSGRFFSSGADFKGIAKAQGDDTNKYPSETSKWVSNFVARNVYVTDAFIKHSKVLICCLNGPAIGLSAALVALCDIVYSINDKVYLLYPFANLGLITEGGTTVSLPLKFGTNTTYECLMFNKPFKYDIMCENGFISKNFNMPSSNAEAFNAKVLEELREKVKGLYLPSCLGMKKLLKSNHIDAFNKANSVEVNESLKYWVDGEPLKRFRQLGSKQRKHRL | soluble |
| MPITSTTPEPGIVAVTVDYPPVNAIPSKAWFDLADAVTAAGANSDTRAVILRAEGRGFNAGVDIKEMQRTEGFTALIDANRGCFAAFRAVYECAVPVIAAVNGFCVGGGIGLVGNSDVIVASEDATFGLPEVERGALGAATHLSRLVPQHLMRRLFFTAATVDAATLQHFGSVHEVVSRDQLDEAALRVARDIAAKDTRVIRAAKEALNFIDVQRVNASYRMEQGFTFELNLAGVADEHRDAFVKKS | not soluble |
| MSLDIMITHKKIYSSLLNTKSRLNFKDTVQSGQSFRWNLNETLKSYYSSVIYNSIIFICEINSEMIEVLCTDQELSGKPINEFLKHLFSLDFQEETVFSSRFQQEFPEVWNLVQSYRSVRVMRQDPFEIMVTFMCAQGIGMHLIRRQVSMIAERYGQKIMLELPEGNLTFHSFPPPQALASADPNELAVCTNNNRIRAANIIAMARSFESGKLALACVDSGKCDLETLRETLCVHSGIGLKIADCIALFGLGRFDAFPIDTHVKQYLWEWFGIEEARHSLTEKNYRILQEKARAILGAEYAGYAGHILFHCWRKEVKKMKAEGHHHHHH | soluble |
| MSLTELYIHNGRDVSGAPVAVLITDGVIAEVGTELTVPVGCPTLDAQGCYITAGWIDDHTHCNAHAALYYDDADAIGYRTGVTTVIDAGSTGADNVADLYQQAHRAATNVYALLNIARTGIVAQDELADLNQLSFSALRTAIKRYPDFIVGLKVRVSKSVVGDNGVEPLRVAKQYQADLTVQLPLMVHIGSNPPELAAIIALMRPGDVLTHCFNGKPNGIVNSTGEVAQYVRKAYQKGLIFDVGHGTDSFSFRTAALARTAHLFPQTLSSDIYYRNRLNGPVYSLAVCVEKLLLLGYRLEEIIPMITTNPARIFKLTHKGQLCRGYDADLTIFQTVTAPQIVVDSTGEERIAPTQVIPTYSVIAGRVYTCGVDKEGHHHHHH | soluble |
| MSLLKINSQLFAIEDTLDDLAAAFLNLEVVRTYKAAQKAFLADKHLQKEISNFQHYNEDYNDQKTFIKYRPEVKQLRRKIFEKKRQLDLNEKVIALRRAEVDLQEVLAKIAQKIAESVSSDVFVDTGLPLAPHKPPHKKGYGNNIKEREGHHHHHH | soluble |
| MKGGLLVDDEFIHGEERSLTVRKTSLFFAGDGFTVYDCKGSLVFRVDSYGGPNTRDTDEVVLMDAHGRCLLTLRRKRPSLRRRWEGYLGERSDGQKPIFGVRRSSIIGRNSVTVEVYGDYQCSEYLIEGSFGARNCTVVEAETRRKVAEIRRKVDASTNVMLGKDVFSLNVKPGFDGAFAMGLVLVLDQIYGDDLLEVGEEQVHPSAEDL | not soluble |
| MKIAIAGAGAMGSRLGIMLHQGGNDVTLIDQWPAHIEAIRKNGLIADFNGEEVVANLPIFSPEEIDHQNEQVDLIIALTKAQQLDAMFKAIQPMITEKTYVLCLLNGLGHEDVLEKYVPKENILVGITMWTAGLEGPGRVKLLGDGEIELENIDPSGKKFALEVVDVFQKAGLNPSYSSNVRYSIWRKACVNGTLNGLCTILDCNIAEFGALPVSESLVKTLISEFAAVAEKEAIYLDQAEVYTHIVQTYDPNGIGLHYPSMYQDLIKNHRLTEIDYINGAVWRKGQKYNVATPFCAMLTQLVHGKEELLGAK | soluble |
| MGSSHHHHHHSSGRENLYFQGHMRILWILPYSPWPTTSGGKTRQYHLLRSLAARGHRITVLLHSKQPVSAEDRQALEPFLERLVVLPRRPLRSLSTLLAALFAPYPLLASVNGLSAELQRTATELLREPWDVVQVEHSYSFQPYERPLRDAGQPFVLTEHNVESSLGAATYDRLPGWALPFVRYDQWRYRRWERRVMSQAAAVVAVTEKDARQLGAMLGRPVPVVVNGVDCEHFATARPTPEAQRVLFLGNYEYAPNVDAVEWMLDEILPRVWAHCPEARMSVCGYALPAEWAQRWSDPRIEWQGFVPDLLQLQSSSSVFLAALRHGGGSKLKVLEALAAGLPLASTAQGVSGLELRDGEDYLGGESAEQLANAVVRLLQDPAQARALGENGRAYVRRAHDWSVAASQLEQVYAGLAEGAPACA | soluble |
| DLQTLLDKSFNLIISTLDAKYCKILKLLNDGNFLVEAGVGWKPEDTGKVIKREEASVAGYTVLSKKPINIEDLDKKGSIERMGLYGYSEITHGISVLVGSLEKPYGVLAVHSTRKEKFTKEDACFLKGIASMLSLALERNKVESTL | not soluble |
| SLIFGKIDYINLLPLHIYLKKYPLPNGYKASMEYKKGVPSKLNKDLFYRRIDAAIISSIESARKKYKNLDLGICANKRVLSVLVEKNTSNAKDPSSATSNALAKVLKQDGKVIIGDKALKLYLKDPSKYIDLCAKWHEKTGLPFVFARFSCVQKKALYKQILKKFPKTKIKIPYYILQKYAKTRDLDVKDVRYYLDEVIYHKISTKEKTALKRFVKACKALNLA | soluble |
| MSLGDRMKIVMVTHGGEGDAFWDRVRKGAEAAAAKDGVDLTYAGDADTADQADLVRDAIRDKADGIAVTLAKPQAMKAPVAEAKAAGIPVVGLNSGIDAWRSTGLLEYFGQDESVAGRAVGDKLDDLRAKHALCVIHERGNVALEARCAGVKKTFGGETEMLYVEGTDMKAVGAAVTARLRQDPSIDEVVMNGAAFALTAVEAVDEAGSDAHVATFDLDNDLVAAVKRGDVQFAVDQQPYLQGYLAVDALWLYRTNGNVSGGGVAPVLTGPAFVTREGHHHHHH | soluble |
| MLYQSETLQLHWLENGIAELVFDAPGSVNKLDTKTVANLGEALNVLEKQSELKGLLLRSAKTALIVGADITEFLSLFNAPPEKLHQWLVFANTIFNRLEDLPVPTISAINGYALGGGCECILATDFRIASPEARIGLPETKLGIMPGFGGSVRLPRLLGADSALEIIATGKDVTANDALKIGLVDAVVDPEKLVGSALTMLKQAIDGKLDWQAARRPKLEPLKLNPTEAAMCFTIAKGRVMQVAGKHYPAPLTAVKTIEAAAKFGRTEALNLETNSFVPLAGSNEARALVGIFLNDQYVKAQAKKLSKGVAAPKLAAVLGAGIMGGGIAYQSALKSVPVIMKDINENSLDLGMNEAAKLLNKQLERGKVDGLKMASILATIRPTLDYAGIERAQVIVEAVVENPKVKAAVLAEVEALIGEDTVLASNTSTIPIDQLAKSLKRPENFCGMHFFNPVHRMPLVEIIRGAKTSDKTLAAVVAYATQMGKTPIVVNDCPGFFVNRVLFPYLAGFGMLVRDGGDFHQIDKVMEKQFGWPMGPAYLLDVVGIDTAHHAQAVMAAGFPERMNKDYRDAVDVMFDNQRFGQKNGQGFYRYTQDAKGKPRKENDEQVDKLLAEISQPLQEFSDEDIIARTMIPMINEVVRCLEEGIIASAAEGDMALVYGLGFPPFHGGVFRYLDTLGSANYVEMAQRYAHLGALYHVPAGLRAKAEHNESYYPVAAALLDVSTNQPA | not soluble |
| MTDLSRMQGFADSAIPALEGRFFRPPLPEGYVPRSRLCQRLNEGLGGRLLLVCAPAGFGKSSLAVEFCQGLPDQWQNVWLGLSARDSEPGRFLERLLGSLQQFFPQLGAQAMGLLKMRQRHQPFAFEEWLDSLLDELAMHLMLSKPLLLVLDDYHLAQGPVLDRCLQFFLNHLPAGLVVMVTSRQRPDWHLARLRLTRQLLEINEQDLRLTQAESMAVLDRHSRSLDSEALQSLILRSEGWVAGLRFWLLAASEAGDESALSQALRGSEVLIREYLLEEVIDCLPADVQAFLYDTACLERFCAELCNAARDSHDSVEMLRYLQAHQVFLVPLDEQGRWFRYHHLFSDLLRARQTADAQTTRLHLNACRWFSAQGQLDEAVEQALRAGHLDVAANLVQNLSEEQLLAEQNVGMLLRWKMDLPDDLLTSTPRLIVLYAWALGLACQLDAAEELANQLSRFLPAPSATAQKSMLAQWLALSGIIARGRGDSEKTERYCREALLTLPQRRYGQRLVCLSTLANLAVAEGDLWQARVLNRDALELAQRVANPLFEALAHYDRARVLQARGEIIRALEEVRQGQQRLKGLSTVRLYAVRARLTLYEGYLLALRLQVDEGRALLLAGLAEARACRDISVLIGHCVIATMEGFAGRFAEAFAELAEAERLMHIWDVPPIYYLAMITLVKCELWLIQGRIDLAEAWLLRLTQTYNGGLGAAAPECHPQLSQHIELQRAVLERIQGDEVASEQRLQALEQRAQEVGAQLLRLIAMTQQIALLLNQGRQDEARTLLIRSVQASAGGALLPFRVLLAEHSQWLHEQLQLAPSCKLCNALREKFPACFKPAAPEPAHGSDCLSVRELGVLRLIAQGCSNQEISEQLFISLHTVKTHASHINSK | not soluble |
